Test results from US20210040184A1 (ATRECA, published 2021).
Changes are numbered by the printed parent chain.

How the values were obtained:
Test in all cases: cell-based or functional assay
[1] = molecular target: T1, HIV-1 DU172.17 envelope (Env) on Env.IMC.LucR virus (HIV-1 clade C)
[2] = molecular target: T2, HIV-1 CAP45.2.00.G3 envelope (Env) on Env.IMC.LucR virus (HIV-1 clade C)
[3] = molecular target: T3, HIV-1 CNE20 envelope (Env) on Env.IMC.LucR virus (HIV-1 clade BC)
[4] = molecular target: T4, HIV-1 REJO4541.67 envelope (Env) on Env.IMC.LucR virus (HIV-1 clade B)
[5] = molecular target: T5, HIV-1 X1632_S2_B10 envelope (Env) on Env.IMC.LucR virus (HIV-1 clade G)
[6] = molecular target: T6, HIV-1 AC10.0.29 envelope (Env) on Env.IMC.LucR virus (HIV-1 clade B)
[7] = molecular target: T7, HIV-1 DU422.1 envelope (Env) on Env.IMC.LucR virus (HIV-1 clade C)
[8] = molecular target: T1, HIV-1 DU172.17 envelope (Env) on …; remark: listed apart in the source
[9] = molecular target: HIV-1 THRO4156.18 envelope (Env) on Env.IMC.LucR virus (HIV-1 clade B)
[10] = molecular target: T2, HIV-1 CAP45.2.00.G3 envelope (Env) on …; remark: listed apart in the source
[11] = molecular target: T3, HIV-1 CNE20 envelope (Env) on …; remark: listed apart in the source
[12] = molecular target: T4, HIV-1 REJO4541.67 envelope (Env) on …; remark: listed apart in the source
[13] = molecular target: T5, HIV-1 X1632_S2_B10 envelope (Env) on …; remark: listed apart in the source
[14] = molecular target: HIV-1 WITO4160.33 envelope (Env) on Env.IMC.LucR virus (HIV-1 clade B)
[15] = molecular target: T6, HIV-1 AC10.0.29 envelope (Env) on …; remark: listed apart in the source
[16] = molecular target: HIV-1 ZM233M.PB6 envelope (Env) on Env.IMC.LucR virus (HIV-1 clade C)
[17] = molecular target: T7, HIV-1 DU422.1 envelope (Env) on …; remark: listed apart in the source
[18] = molecular target: T1, HIV-1 DU172.17 envelope (Env) on …; remark: listed apart in the source

B1: NVS49-L1A2 (antibody, V domains shown)
VH: ADLVQSGAVVKKPGDSVRISCEAQGYRFPDYIIHWIRRAPGQGPEWMGWMNPMGGQVNIPWKFQGRVSMTRDTSIETAFLDLRGLKSDDTAVYYCVRDRSNGSGKRFESSNWFLDLWGRGTAVTIQS
VL: QSALTQPRSVSASPGQSVTISCTGTHNLVSWCQHQPGRAPKLLIYDFNKRPSGVPDRFSGSGSGGTASLTITGLQDDDDAEYFCWAYEAFGGGTKLTVL
- IC50 of virus neutralization (TZM-BL, luciferase); L1A2 lot CRO #1, 293 cells [1]: 0.268 µg/mL
- IC50 of virus neutralization (TZM-BL, luciferase); L1A2 lot CRO #2, 293 cells [1]: 0.279 µg/mL
- IC50 of virus neutralization (TZM-BL, luciferase); L1A2 lot CRO #2, CHO cells [1]: 0.507 µg/mL
- IC50 of virus neutralization (TZM-BL, luciferase); L1A2 lot CRO #1, 293 cells [2]: 0.132 µg/mL
- IC50 of virus neutralization (TZM-BL, luciferase); L1A2 lot CRO #2, 293 cells [2]: 0.209 µg/mL
- IC50 of virus neutralization (TZM-BL, luciferase); L1A2 lot CRO #2, CHO cells [2]: 0.162 µg/mL
- IC50 of virus neutralization (TZM-BL, luciferase); L1A2 lot CRO #1, 293 cells [3]: 0.089 µg/mL
- IC50 of virus neutralization (TZM-BL, luciferase); L1A2 lot CRO #2, 293 cells [3]: 0.124 µg/mL
- IC50 of virus neutralization (TZM-BL, luciferase); L1A2 lot CRO #2, CHO cells [3]: 0.092 µg/mL
- IC50 of virus neutralization (TZM-BL, luciferase); L1A2 lot CRO #1, 293 cells [4]: 0.054 µg/mL
- IC50 of virus neutralization (TZM-BL, luciferase); L1A2 lot CRO #2, 293 cells [4]: 0.072 µg/mL
- IC50 of virus neutralization (TZM-BL, luciferase); L1A2 lot CRO #2, CHO cells [4]: 0.045 µg/mL
- IC50 of virus neutralization (TZM-BL, luciferase); L1A2 lot CRO #1, 293 cells [5]: > 50 µg/mL
- IC50 of virus neutralization (TZM-BL, luciferase); L1A2 lot CRO #2, 293 cells [5]: > 50 µg/mL
- IC50 of virus neutralization (TZM-BL, luciferase); L1A2 lot CRO #2, CHO cells [5]: > 50 µg/mL
- IC50 of virus neutralization (TZM-BL, luciferase); L1A2 lot CRO #1, 293 cells [6]: > 50 µg/mL
- IC50 of virus neutralization (TZM-BL, luciferase); L1A2 lot CRO #2, 293 cells [6]: > 50 µg/mL
- IC50 of virus neutralization (TZM-BL, luciferase); L1A2 lot CRO #2, CHO cells [6]: > 50 µg/mL
- IC50 of virus neutralization (TZM-BL, luciferase); L1A2 lot CRO #1, 293 cells [7]: > 50 µg/mL
- IC50 of virus neutralization (TZM-BL, luciferase); L1A2 lot CRO #2, 293 cells [7]: > 50 µg/mL
- IC50 of virus neutralization (TZM-BL, luciferase); L1A2 lot CRO #2, CHO cells [7]: > 50 µg/mL
- IC50 of virus neutralization (TZM-BL, luciferase) [8]: 0.279 µg/mL
- IC50 of virus neutralization (TZM-BL, luciferase) [9]: 1.04 µg/mL
- IC50 of virus neutralization (TZM-BL, luciferase) [10]: 0.209 µg/mL
- IC50 of virus neutralization (TZM-BL, luciferase) [11]: 0.124 µg/mL
- IC50 of virus neutralization (TZM-BL, luciferase) [12]: 0.072 µg/mL
- IC50 of virus neutralization (TZM-BL, luciferase) [13]: > 50 µg/mL
- IC50 of virus neutralization (TZM-BL, luciferase) [14]: 0.2 µg/mL
- IC50 of virus neutralization (TZM-BL, luciferase) [15]: > 50 µg/mL
- IC50 of virus neutralization (TZM-BL, luciferase) [16]: 0.613 µg/mL
- IC50 of virus neutralization (TZM-BL, luciferase) [17]: > 50 µg/mL

B2: NglycoND (antibody, V domains shown)
VH: B1 VH with N101D
VL: B1 VL
- fold increase in neutralization IC50 as compared to parent mAb L1A2 [18]: ~65 fold
- IC50 of virus neutralization (TZM-BL, luciferase) [8]: 18.3 µg/mL
- IC50 of virus neutralization (TZM-BL, luciferase) [10]: 0.077 µg/mL
- IC50 of virus neutralization (TZM-BL, luciferase) [11]: > 50 µg/mL
- IC50 of virus neutralization (TZM-BL, luciferase) [12]: 0.062 µg/mL
- IC50 of virus neutralization (TZM-BL, luciferase) [13]: > 50 µg/mL
- IC50 of virus neutralization (TZM-BL, luciferase) [15]: > 50 µg/mL
- IC50 of virus neutralization (TZM-BL, luciferase) [17]: > 50 µg/mL
